Values belong to the binder of their own block, whether it stands above or below them.
What was measured:
[1] = target: Epidermal growth factor receptor I (EGFR) (human) (UniProt P00533); experiment: flow cytometry saturation binding on EGFR positive cells
[2] = target: Epidermal growth factor receptor I (EGFR) (human) (UniProt P00533); experiment: competitive radioligand binding on MDA-MB-468 cells; pre-blocking with 100-fold excess unlabeled 8709-scFv-Fc, tracer ^225Ac-8709-scFv-Fc at 50 nM
[3] = target: Epidermal growth factor receptor I (EGFR) (human) (UniProt P00533); experiment: flow cytometry on MDA-MB-468 cells
[4] = target: T1, Epidermal growth factor receptor I (EGFR) (human, UniProt P00533 25-1210); experiment: flow cytometry saturation binding on EGFR positive cells
T1 construct: whole, on cells; MDA-MB-231 cells also carry EphA2; also called ErbB-1; HER1
Description: (§1) Binding profile of immunoconjugates to MDA-MB468 (high EGFR expression) and MDA-MB-435 (EGFR negative) was studied using flow cytometry. […] A saturation binding curve was performed to determine the binding constants KD at which immunoconjugates bind to the cell.
(§2) In vitro binding to target receptor (e.g. EGFR) positive cells was performed for all immunoconjugates and compared with corresponding unconjugated antibody, and control IgG. […] Target antibodies, control IgG and their respective ADCs were titrated at a minimum of a 10-fold excess onto 1×10⁵ cells. The cell-compound reactions were incubated for 30 minutes at room temperature followed by 15 minutes on ice. Cells were washed and resuspended in a 1:50 dilution of PE or FITC labeled Goat F(ab′)2 fragment anti-human IgG (H+L) antibody (Beckman Coulter, IM0839) and incubated for 30 minutes on ice in the dark. Cells were washed and suspended in 2% FBS-PBS. Data was acquired using a Beckman Coulter Gallios flow cytometer and the results were analysed using FlowJoV10. The binding constant KD for each conjugate were generated using a non-linear regression curve fit with GraphPad prism 6.

[5] = target: T1, Epidermal growth factor receptor I …; experiment: flow cytometry on MDA-MB-468 cells
Description: as §1, §2

[6] = target: T1, Epidermal growth factor receptor I …; experiment: flow cytometry saturation binding on MDA-MB-468 cells
Description: as §1, §2

[7] = target: T1, Epidermal growth factor receptor I …; experiment: saturation radioligand binding assay on MDA-MB-468 cells

Kd [1]: 1.1 nM
fold reduction in the binding of ^225Ac-8709-scFv-Fc to EGFR [2]: 23.2 fold
% binding [3]: > 90%
B1: 8709-scFv-Fc (Fc fusion, part only; not given: Linker, domain order, hinge and Fc, not shown: another chain or arm of the molecule; a dimerising Fc or GST; small tags and cut ends)
VH: EVQLVESGGGLVQPGGSLRLSCAASGFNLYSSSMHWVRQAPGKGLEWVASIYPYSGYTYYADSVKGRFTISADTSKNTAYLQMNSLRAEDTAVYYCARYPFGVSAYYAMDYWGQGTLVTVSS
VL: DIQMTQSPSSLSASVGDRVTITCRASQSVSSAVAWYQQKPGKAPKLLIYSASSLYSGVPSRFSGSRSGTDFTLTISSLQPEDFATYYCQQSYWLITFGQGTKVEIK

Kd [4]: 4.2 nM
% binding [5]: > 90%
B2: 8709-scFv-Fc-PEG6-DM1 (Fc fusion)
VH: EVQLVESGGGLVQPGGSLRLSCAASGFNLYSSSMHWVRQAPGKGLEWVASIYPYSGYTYYADSVKGRFTISADTSKNTAYLQMNSLRAEDTAVYYCARYPFGVSAYYAMDYWGQGTLVTVSS
VL: DIQMTQSPSSLSASVGDRVTITCRASQSVSSAVAWYQQKPGKAPKLLIYSASSLYSGVPSRFSGSRSGTDFTLTISSLQPEDFATYYCQQSYWLITFGQGTKVEIKR
modifications: PEG6-DM1 conjugated via NHS (drug to antibody ratio 3.5), sites not stated

Kd [4]: 11.3 nM
fold higher KD value as compared to 8709-scFv-Fc [6]: 10.4 fold
B3: Macropa-8709-scFv-Fc (Fc fusion)
VH: EVQLVESGGGLVQPGGSLRLSCAASGFNLYSSSMHWVRQAPGKGLEWVASIYPYSGYTYYADSVKGRFTISADTSKNTAYLQMNSLRAEDTAVYYCARYPFGVSAYYAMDYWGQGTLVTVSS
VL: DIQMTQSPSSLSASVGDRVTITCRASQSVSSAVAWYQQKPGKAPKLLIYSASSLYSGVPSRFSGSRSGTDFTLTISSLQPEDFATYYCQQSYWLITFGQGTKVEIKR
modifications: macropa chelator conjugated via macropa-NCS, sites not stated

Kd [7]: 14.5 nM
B4: ^225Ac-8709-scFv-Fc (Fc fusion)
VH: EVQLVESGGGLVQPGGSLRLSCAASGFNLYSSSMHWVRQAPGKGLEWVASIYPYSGYTYYADSVKGRFTISADTSKNTAYLQMNSLRAEDTAVYYCARYPFGVSAYYAMDYWGQGTLVTVSS
VL: DIQMTQSPSSLSASVGDRVTITCRASQSVSSAVAWYQQKPGKAPKLLIYSASSLYSGVPSRFSGSRSGTDFTLTISSLQPEDFATYYCQQSYWLITFGQGTKVEIKR
modifications: macropa chelator with ^225Ac, sites not stated

— US20250127943A1 (published 2025)
